Test results from article PMC11822394, “CsNAC17 enhances resistance to Colletotrichum gloeosporioides by interacting with CsbHLH62 in Camellia sinensis”.

T1: CsNAC17 (Camellia sinensis, UniProt A0A4S4ETT7 1-357)
T1 chain: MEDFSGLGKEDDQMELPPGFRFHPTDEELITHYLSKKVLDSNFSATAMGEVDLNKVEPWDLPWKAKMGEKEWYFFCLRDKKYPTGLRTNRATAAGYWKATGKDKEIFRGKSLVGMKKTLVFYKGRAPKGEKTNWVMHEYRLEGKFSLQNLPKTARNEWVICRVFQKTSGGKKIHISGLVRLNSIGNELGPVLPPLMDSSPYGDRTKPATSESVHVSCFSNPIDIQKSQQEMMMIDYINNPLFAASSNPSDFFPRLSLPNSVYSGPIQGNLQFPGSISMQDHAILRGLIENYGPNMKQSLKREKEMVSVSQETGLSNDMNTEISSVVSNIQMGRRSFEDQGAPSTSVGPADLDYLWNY

B1: ProCsRPM1-CACG probe (dsDNA)
DNA 1: CTACGTAGCACGGTCCTATT
DNA 2: AATAGGACCGTGCTACGTAG
B2: ProCsRPM1-CATGTG probe (dsDNA)
DNA 1: TTTTAGACATGTGTTTCCCA
DNA 2: TGGGAAACACATGTCTAAAA

Biological target: T1, CsNAC17
Experiment: EMSA; LightShift Chemiluminescent EMSA Kit; buffer, salt, pH and temperature not stated
Settings: protein: recombinant; tags: GST (pGEX-6p-1); chain copies: 0; label: biotin (hot probe); blunt

Binder | binding result
B1 | binds
B2 | binds
